# Literature values in patent publication US5593962A, “Fibrillated calcitonin pharmaceutical compositions” (Ciba-Geigy Corporation, priority 1991, dated 1997).
# What was measured:
# [1] = physiological saline solutions or buffers
substance,measurement,setting,value
human calcitonin,stability in solution,[1],not stable
same,generation of neutralizing antibodies,after prolonged administration,not generating neutralizing antibodies
same,potency relative to salmon calcitonin,in vivo,less potent
